Measurements as given in article PMC9482650, “Quantitative fragmentomics allow affinity mapping of interactomes” (Nature Communications, 2022).

T1: APBA2_1, Q99767
T1 sequence (Q99767 563-664, limits assumed, looked up): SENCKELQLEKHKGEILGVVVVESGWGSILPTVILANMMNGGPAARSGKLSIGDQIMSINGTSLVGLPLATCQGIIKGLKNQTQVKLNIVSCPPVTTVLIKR

T2: APBA2_2, Q99767
T2 sequence (Q99767 654-744, limits assumed, looked up): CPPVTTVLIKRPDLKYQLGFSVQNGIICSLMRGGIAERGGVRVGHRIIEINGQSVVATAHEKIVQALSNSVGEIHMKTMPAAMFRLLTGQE

T3: ARHGAP21, Q5T5U3
T3 sequence (Q5T5U3 45-169, limits assumed, looked up): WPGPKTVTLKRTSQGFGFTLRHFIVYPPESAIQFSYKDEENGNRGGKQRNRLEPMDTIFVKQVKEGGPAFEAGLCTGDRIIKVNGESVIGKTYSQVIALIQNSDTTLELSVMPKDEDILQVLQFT

T4: DFNB31_2, Q9P202
T4 sequence (Q9P202 274-371, limits assumed, looked up): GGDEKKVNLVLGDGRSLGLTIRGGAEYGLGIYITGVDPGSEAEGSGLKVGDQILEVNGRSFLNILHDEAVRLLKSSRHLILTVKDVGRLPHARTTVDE

T5: DLG3_1, Q92796
T5 sequence (Q92796 125-227, limits assumed, looked up): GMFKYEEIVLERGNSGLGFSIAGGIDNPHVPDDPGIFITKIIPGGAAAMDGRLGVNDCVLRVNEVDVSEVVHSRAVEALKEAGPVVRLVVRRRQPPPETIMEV

T6: GRIP1_7, Q9Y3R0
T6 sequence (Q9Y3R0 999-1096, limits assumed, looked up): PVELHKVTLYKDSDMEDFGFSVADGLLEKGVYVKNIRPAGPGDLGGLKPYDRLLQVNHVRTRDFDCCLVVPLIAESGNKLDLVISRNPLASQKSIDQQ

T7: LRRC7, Q96NW7
T7 sequence (Q96NW7 1440-1537, limits assumed, looked up): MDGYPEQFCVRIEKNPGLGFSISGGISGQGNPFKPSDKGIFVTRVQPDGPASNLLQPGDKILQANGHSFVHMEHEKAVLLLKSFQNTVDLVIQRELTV

T8: NHERF3_1, Q5T2W1
T8 sequence (Q5T2W1 4-100, limits assumed, looked up): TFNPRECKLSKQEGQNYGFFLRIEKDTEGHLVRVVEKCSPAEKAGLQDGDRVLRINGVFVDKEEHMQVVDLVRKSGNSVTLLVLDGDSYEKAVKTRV

T9: NHERF3_3, Q5T2W1
T9 sequence (Q5T2W1 238-333, limits assumed, looked up): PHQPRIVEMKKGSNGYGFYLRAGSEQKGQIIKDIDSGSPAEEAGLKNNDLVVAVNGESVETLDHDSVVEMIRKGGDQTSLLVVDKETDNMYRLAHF

T10: NHERF3_4, Q5T2W1
T10 sequence (Q5T2W1 373-468, limits assumed, looked up): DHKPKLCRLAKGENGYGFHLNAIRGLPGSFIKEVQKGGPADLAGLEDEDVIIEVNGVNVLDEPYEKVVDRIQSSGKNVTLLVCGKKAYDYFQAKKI

T11: PTPN13_1, Q12923
T11 sequence (Q12923 1088-1188, limits assumed, looked up): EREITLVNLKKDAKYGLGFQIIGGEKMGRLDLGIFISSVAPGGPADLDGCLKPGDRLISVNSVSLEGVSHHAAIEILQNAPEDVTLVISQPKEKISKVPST

T12: SIPA1L2, Q9P2F8
T12 sequence (Q9P2F8 945-1036, limits assumed, looked up): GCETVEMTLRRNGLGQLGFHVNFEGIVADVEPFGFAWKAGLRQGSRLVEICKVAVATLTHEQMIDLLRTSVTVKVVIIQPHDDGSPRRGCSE


Columns and labels:
Test in all cases: holdup assay
Design in all cases: key: below the threshold = too weak to quantify, mostly under pKd 3.1 to 4
Settings in all cases: plain residues with an end cap or a label only (N-terminal biotin on a linker: ado-ado)
[1] = biological target: T1, APBA2_1, Q99767
[2] = biological target: T2, APBA2_2, Q99767
[3] = biological target: T3, ARHGAP21, Q5T5U3
[4] = biological target: T4, DFNB31_2, Q9P202
[5] = biological target: DLG1_2, Q12959
Sequence of DLG1_2, Q12959 (Q12959 314-412): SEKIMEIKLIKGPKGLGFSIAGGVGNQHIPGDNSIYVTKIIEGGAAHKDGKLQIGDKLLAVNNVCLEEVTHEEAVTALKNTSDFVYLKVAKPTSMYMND

[6] = biological target: DLG1_3, Q12959
Sequence of DLG1_3, Q12959 (Q12959 457-571): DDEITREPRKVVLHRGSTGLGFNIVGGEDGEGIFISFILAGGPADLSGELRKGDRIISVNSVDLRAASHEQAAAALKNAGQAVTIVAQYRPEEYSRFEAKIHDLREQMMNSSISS

[7] = biological target: DLG2_2, Q15700
Sequence of DLG2_2, Q15700 (Q15700 189-283): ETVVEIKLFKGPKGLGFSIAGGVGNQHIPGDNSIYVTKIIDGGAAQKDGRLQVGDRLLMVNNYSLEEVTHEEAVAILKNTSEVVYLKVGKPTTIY

[8] = biological target: T5, DLG3_1, Q92796
[9] = biological target: FRMPD2_1, Q68DX3
Sequence of FRMPD2_1, Q68DX3 (Q68DX3 770-861): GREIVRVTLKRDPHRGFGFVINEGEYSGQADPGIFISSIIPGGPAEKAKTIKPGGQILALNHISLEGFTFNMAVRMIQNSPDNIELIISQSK

[10] = biological target: FRMPD4, Q14CM0
Sequence of FRMPD4, Q14CM0 (Q14CM0 67-160): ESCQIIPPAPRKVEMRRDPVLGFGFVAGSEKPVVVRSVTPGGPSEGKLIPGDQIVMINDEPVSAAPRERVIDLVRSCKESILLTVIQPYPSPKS

[11] = biological target: GIPC2, Q8TF65
Sequence of GIPC2, Q8TF65 (Q8TF65 112-203): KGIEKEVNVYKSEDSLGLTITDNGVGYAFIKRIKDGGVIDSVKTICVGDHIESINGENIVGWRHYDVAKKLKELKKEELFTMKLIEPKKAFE

[12] = biological target: GRID2IP_1, A4D2P6
Sequence of GRID2IP_1, A4D2P6 (A4D2P6 1-87): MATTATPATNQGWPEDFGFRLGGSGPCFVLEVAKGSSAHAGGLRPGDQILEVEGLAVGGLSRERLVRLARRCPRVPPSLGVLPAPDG

[13] = biological target: T6, GRIP1_7, Q9Y3R0
[14] = biological target: GRIP2_7, Q9C0E4
Sequence of GRIP2_7, Q9C0E4 (Q9C0E4 934-1023): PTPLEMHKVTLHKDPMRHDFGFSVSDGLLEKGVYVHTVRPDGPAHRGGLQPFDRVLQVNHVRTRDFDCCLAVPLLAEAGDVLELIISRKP

[15] = biological target: HTRA2, O43464
Sequence of HTRA2, O43464 (O43464 355-458): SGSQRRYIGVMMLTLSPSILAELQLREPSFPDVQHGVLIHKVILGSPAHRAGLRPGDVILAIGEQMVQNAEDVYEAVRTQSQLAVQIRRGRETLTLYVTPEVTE

[16] = biological target: IL16_4, Q14005
Sequence of IL16_4, Q14005 (Q14005 1229-1329): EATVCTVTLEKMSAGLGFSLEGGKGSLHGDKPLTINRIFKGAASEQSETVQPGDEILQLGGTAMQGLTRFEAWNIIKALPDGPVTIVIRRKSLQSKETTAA

[17] = biological target: Inadl_2, Q8NI35
Sequence of Inadl_2, Q8NI35 (Q8NI35 238-335): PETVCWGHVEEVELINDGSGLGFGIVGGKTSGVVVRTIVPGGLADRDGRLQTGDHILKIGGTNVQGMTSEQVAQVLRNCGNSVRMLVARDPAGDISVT

[18] = biological target: Inadl_5, Q8NI35
Sequence of Inadl_5, Q8NI35 (Q8NI35 673-780): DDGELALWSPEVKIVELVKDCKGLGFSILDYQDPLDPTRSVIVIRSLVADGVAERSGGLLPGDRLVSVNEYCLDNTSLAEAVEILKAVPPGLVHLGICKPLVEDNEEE

[19] = biological target: T7, LRRC7, Q96NW7
[20] = biological target: MAGI2_2, Q86UL8
Sequence of MAGI2_2, Q86UL8 (Q86UL8 410-522): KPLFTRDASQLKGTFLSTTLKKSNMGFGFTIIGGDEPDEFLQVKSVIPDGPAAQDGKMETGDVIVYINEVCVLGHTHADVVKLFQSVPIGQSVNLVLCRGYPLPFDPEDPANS

[21] = biological target: MAGI2_3, Q86UL8
Sequence of MAGI2_3, Q86UL8 (Q86UL8 600-682): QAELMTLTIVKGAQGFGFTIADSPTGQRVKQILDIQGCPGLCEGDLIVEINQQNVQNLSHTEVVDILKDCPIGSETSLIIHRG

[22] = biological target: T8, NHERF3_1, Q5T2W1
[23] = biological target: T9, NHERF3_3, Q5T2W1
[24] = biological target: T10, NHERF3_4, Q5T2W1
[25] = biological target: T11, PTPN13_1, Q12923
[26] = biological target: T12, SIPA1L2, Q9P2F8

Binder	pKd [1]	pKd [2]	pKd [3]	pKd [4]	pKd [5]	pKd [6]	pKd [7]	pKd [8]	pKd [9]	pKd [10]	pKd [11]	pKd [12]	pKd [13]	pKd [14]	pKd [15]	pKd [16]	pKd [17]	pKd [18]	pKd [19]	pKd [20]	other results
NISARRFTLC [FAM167B, Q9BTA0]	below the threshold	below the threshold	below the threshold	below the threshold	3.92	4.06	3.79	3.98	4.1	below the threshold	below the threshold	below the threshold	below the threshold	3.81	4.44	below the threshold	below the threshold	below the threshold	below the threshold	4.76	pKd [21]: 3.81; pKd [22]: 4.11; pKd [23]: below the threshold; pKd [24]: below the threshold; pKd [25]: below the threshold; pKd [26]: 3.73
RSPVATATSC [DUSP5, Q16690]	below the threshold	below the threshold	below the threshold	below the threshold	below the threshold	below the threshold	below the threshold	below the threshold	below the threshold	below the threshold	3.6	below the threshold	below the threshold	below the threshold	below the threshold	below the threshold	below the threshold	below the threshold	below the threshold	below the threshold	pKd [21]: below the threshold; pKd [22]: 3.53; pKd [23]: below the threshold; pKd [24]: below the threshold; pKd [25]: below the threshold; pKd [26]: below the threshold
PLPPEEESWV [GAS2L2, Q8NHY3]	below the threshold	below the threshold	4.15	below the threshold	4.67	below the threshold	4.19	4.01	below the threshold	3.55	4.2	below the threshold	4.46	4.09	3.96	below the threshold	4.17	4.29	4.96	below the threshold	pKd [21]: 4.13; pKd [22]: 4.86; pKd [23]: below the threshold; pKd [24]: below the threshold; pKd [25]: below the threshold; pKd [26]: below the threshold
